Source: US20250186623A1, “EXPRESSION SYSTEM FOR THE TREATMENT OF CANCER” (FUNDACION PARA LA INVESTIGACION MEDICA APLICADA, priority 2022, published 2025)

Experiments:
[1] = test system: B16 cells transduced with AAV8-ISREx4-LucmiR122T; experiment: Radiation and IFN signaling on activation of the ISREx4 promoter (luciferase); format: cell-based, murine
Excerpt: The ISREx4 promoter responds to interferon downstream signaling.

[2] = test system: MC38 cell lines stably expressing hSTINGmut; experiment: Luciferase activity under modified IFN-β promoters; format: cell-based, murine
Excerpt: Therefore, the objective of this experiment was to examine the specificity of different modified IFN-β promoters in their response to DMXAA-induced STING activity.
To this end, five different modifications of the IFN-β promoter (short IFN-β A according to SEQ ID NO: 18, short IFN-β B according to SEQ ID NO: 19, short IFN-β C according to SEQ ID NO: 20, short IFN-β D according to SEQ ID NO: 21, short IFN-β E according to SEQ ID NO: 22) were designed. Lentiviral vectors encoding luciferase under the control of these five different promoters were constructed. […] After another 3 h (FIG. 3A) or 3 and 6 h (FIGS. 3B, 3C, 3D) or 6 h (FIGS. 3E, 3F, 3G and 3H), cells were homogenized in 50 μL of Passive Lysis Buffer (Promega) and frozen in dry ice. After 3 cycles of thaw-vortex-freeze to ensure lysis, cells were spun at 12000 g for 2 min at 4° C. 20 μL were added to a luminometer 96-well plate and luciferase activity was determined using the respective substrates D-Luciferin and Coelenterazine.

[3] = test system: MC38 cell lines stably expressing hSTINGmut; experiment: Luciferase activity under chemokine promoters; format: cell-based, murine; conditions: for luciferase activity upon DMXAA administration: DMXAA 50 μg/mL, 3 or 6 h; for luciferase activity in the absence of DMXAA (leaky expression): vehicle
Excerpt: Therefore, the objective of this experiment was to examine the specificity of these promoters in their response to DMXAA-induced STING activity.
The CXCL9-promoter (CXCL9 according to SEQ ID NO: 23) and the CXCL10-promoter (CXCL10 according to SEQ ID NO: 24) were used for the following experiment. To this end, lentiviral vectors encoding luciferase under the control of these two different promoters were constructed. […] In addition, the lentiviral vectors encoding the short IFN-β A promoter, the short IFN-β B promoter, the short IFN-β C promoter described in experiment 1 were used as a comparison. […] After another 3 or 6 h, cells were harvested and luciferase activity measured as described in experiment 1.

[4] = test system: MC38 cell lines stably expressing hSTINGmut; experiment: scIL-12 mRNA (qPCR) and secreted protein (ELISA) under STING-activity dependent promoters; format: cell-based, murine; conditions: for scIL-12 mRNA or protein expression upon DMXAA treatment: DMXAA 50 μg/mL
Excerpt: The CXCL9-promoter and the CXCL10-promoter from experiment 2, and a full length IFN-β-promoter (IFN-β according to SEQ ID NO: 25) were used for the following experiment. To this end, lentiviral vectors encoding murine scIL-12 under the control of these three different promoters were constructed. […] After the indicated time points, cells were harvested. The cell lysate was used to measure scIL-12 mRNA expression by qPCR as described before (example 1, experiment 1), whereas the supernatant was used to measure secreted scIL-12 protein in NUNC MaxiSorp flat-bottom 96-well plates using an ELISA assay kit (OptEIA, Mouse IL-12 (p70), BD Biosciences, San Diego, CA USA), following manufacturer's instructions.

[5] = test system: human HEK293T cells stably expressing hSTINGmut; experiment: Luciferase activity under synthetic promoters (pGL3-basic plasmids); format: cell-based; conditions: for luciferase activity / inducibility upon DMXAA: DMXAA 50 μg/mL, 48 h; for leakage in the absence of DMXAA: vehicle
Excerpt: (§1) As described above, the specificity of the promoters used in the previous experiments was somewhat poor. […] In order to achieve this, synthetic promoters have been generated.
(§2) Seven different promoters were generated, namely short STATx4 (4 STAT motifs separated by 6 nucleotides according to SEQ ID NO: 26), IRSF3×4 (4 IRSF3 motifs separated by 20 nucleotides according to SEQ ID NO: 27), short IRSF3×4 (4 IRSF3 motifs separated by 6 nucleotides according to SEQ ID NO: 28), ISREx4 (4 ISRE motifs separated by 20 nucleotides according to SEQ ID NO: 12), short ISREx4 (4 ISRE motifs separated by 6 nucleotides according to SEQ ID NO: 13), NFκBx4 (4 NFκB motifs separated by 20 nucleotides according to SEQ ID NO: 29) and short NFκBx4 (4 NFκB motifs separated by 6 nucleotides according to SEQ ID NO: 30). […] In addition, a plasmid containing the luciferase sequence under the control of the murine IFN-β-promoter (mIFN-β) and a plasmid containing the luciferase sequence under the control of CXCL10-promoter were used as controls. Either MC38 cells or human HEK293T cells, both which stably expressed hSTINGmut as described above (example 1), were transfected with the indicated plasmids using Lipofectamine3000 according to the manufacturers protocol, whereas a negative control was mock-transfected (Basic).

[6] = test system: MC38 cells stably expressing hSTINGmut; experiment: as above; format: cell-based, murine; conditions: DMXAA 50 μg/mL, 48 h
Excerpt: as §1, §2

[7] = 1,000 IU interferon alone (0 Gy)
[8] = 1,000 IU interferon together with radiation (8 Gy)

IFN-α
luciferase activity [1, 7]: significantly increased luciferase activity
luciferase activity [1, 8]: induced luciferase activity dramatically

B1: short IFN-β A promoter: modification of the IFN-β promoter according to SEQ ID NO: 18 (nucleic acid)
DNA: CAGGAGCTTGAATAAAATGAATATTAGAAGCTGTTAGAATAAGAGAAAATGACAGAGGAAAACTGAAAGGGAGAACTGAAAGTGGGAAATTCCTCTGAGGCAGAAAGGACCATCCCTTATAAATAGCACAGGCCATGAAGGAAGATCATTCTCACTGCAGCCTTTGACAGCCTTTGCCTCATCTTGCAGGTAGCAGCCGACACCAGCCTGGCTTCCATC
modifications: misc_feature 1..219 short IFNb A-promoter
luciferase activity upon DMXAA treatment ([2]; DMXAA 50 μg/mL, 3 h): highest luciferase activity
luciferase activity in the absence of DMXAA (leaky expression) ([2]; vehicle): significant luciferase activity

B2: CXCL9-promoter: CXCL9-promoter according to SEQ ID NO: 23 (nucleic acid, listed as Mus musculus)
DNA: GACACAGACATCTCGTGAAACATCTGGAAAAGGTAGCAGGGAACGGGACAGCAGTAGCTTATGCAACTAATCTAGCAATTACAATGATAGGAAACTGTAGCCACGGTGAGACGAAATGGATTTACCCTCAACAAATTAAGAAGCTTTGACTTGTGAGGAAAGGCAGTTTGAGTCGCCATATAGTGTCATGTCCCACGTGGGAAGTACATCTCCAACCTTCATTGTACAACATTAATATAGTCATTGTATAATCTATTCCACATCCAGGTAGCAACTTTGCCTGGGGGTGGTTTCACATCCCTTACTATAAACTCCCCGTTTATGTGAAATGGAAGTAGAACATGCAGAAATTCCCTGGGATCTGAGAGTAGGGTTTTCCCCAGGACGATCAATTTGTGGTTAGTTTAGTTCTTCTAGGTCAGCTGAGGAGACCAGCCAATCAGAGACGGGAAGGAAAAGGGATTTCCTAAATAAATATGATCCCCAAGAACATGCTCTCTAAAGACATTCTCGGACTTCACTCCAACACAGTGACTCAATAGAACTCAGCTCTGCC
modifications: misc_feature 1..556 CXCL9-promoter
luciferase activity upon DMXAA administration [3]: significantly higher luciferase activities
luciferase activity in the absence of DMXAA (leaky expression) [3]: significant luciferase activity
scIL-12 mRNA or protein expression upon DMXAA treatment [4]: poor

B3: CXCL10-promoter: CXCL10-promoter according to SEQ ID NO: 24 (nucleic acid, listed as Mus musculus)
DNA: TCTAACTGTTCACTAAGTTGTATAGACTTTGGATCTGGCTAAATTTGGCGTGTGATTTTTTTTTAAAGTTTATTCCAAGTATTTTATAATAAAGCATATGAAGTAAAAAGCAAAAATAAACAGTGTAAACACAACAAATGTAAAAACCATGGTTAGAACCTGACTTAGATATCAGTTCTGTGTTTTATTTATGAGAGAAGGAAGATGAGAATTAAAGCCATTTCCAGACTTATTCTGCAAGGCACTGCATCTGATTTCTCAAACAGCTCACGCTTTGGAAAGTGAAACTTACCTCACTCGTTAAAAATTAAAAGGAGCACAAGAGGGGAGAGGGAAATTCCAAGTTCATGGGTCACAATAAACACAAGCAATGCCCTCGGTTTACAGGGGACTTCCCTCGGGTTGCGGAGCCTTGCTGAGTCATCTCCAAAGTCAGCCAATCAGGACTCAGGGAGGGAAACTCTTTGCAGATAAATACTCCTCAGCAGCCGGCACTCGAGAAGCGCTTCATCCACCGCTGAGAGACATCCCGAGCCAACCTTCCGGAAGCCTCCCCATCAGCACC
modifications: misc_feature 1..565 CXCL10-promoter
luciferase activity upon DMXAA administration [3]: significantly higher luciferase activities
luciferase activity in the absence of DMXAA (leaky expression) [3]: significant luciferase activity
luciferase activity / inducibility upon DMXAA [5]: highest inducibility
leakage in the absence of DMXAA [5]: considerable leakage
scIL-12 mRNA or protein expression upon DMXAA treatment [4]: highly upregulated
scIL-12 production in the absence of DMXAA (leakage) ([4]; vehicle): significant leakage

B4: IFN-β-promoter: full length IFN-β-promoter according to SEQ ID NO: 25 (nucleic acid, listed as Mus musculus)
DNA: CCAGGATGTGGGGTTCTCTCCCAAAGGGAGCTATGGCCCATTGATGTGCCATTTCTCTTATAGTACACTATTGTAAGCCCCCTGGGAGCTCACAGAGACCCTCTCCCACCATCCCACTATTTCAAAGGGCAGCAGCTGTGCCATCCTTTCAGGATGAGCAGCTACTCTGCCTGGCTTTTCAGTGGACACTTTGGCTGTTTGAGAGTTCTTTTATCTTCAGGGCTGTCTCCTTTCTGTTCTTCTCTCCTGGATATTTCTCTTCCTTTGCTCCAGCAATTGGTGAAACTGTACAAGATTTTATAAATCCTTAGTTTGTATATATTTTAACCCAGTACATAGCATATAAAATAGCCAGGAGCTTGAATAAAATGAATATTAGAAGCTGTTAGAATAAGAGAAAATGACAGAGGAAAACTGAAAGGGAGAACTGAAAGTGGGAAATTCCTCTGAGGCAGAAAGGACCATCCCTTATAAATAGCACAGGCCATGAAGGAAGATCATTCTCACTGCAGCCTTTGACAGCCTTTGCCTCATCTTGCAGGTAGCAGCCGACACCAGCCTGGCTTCCATC
modifications: misc_feature 1..571 IFNb1-promoter
scIL-12 mRNA or protein expression upon DMXAA treatment [4]: poor

B5: short STAT-promoter: 4 STAT motifs separated by 6 nucleotides according to SEQ ID NO: 26 (nucleic acid)
DNA: ATCTCTGCGATGAACCTCACTTCGCTAGAAATCTCTGCGATGAACCTCACTTCGCTAGAAATATCTCTGCGATGAACCTCACTTCGCTAGAAATCTCTGCGATGAACCTCACTTCGCTAGAAGTGCCTCTTATGATCTGGATCTCGAGCCATGGTCGAGGCCTGTAGGCGTGTACGGTGGGAGGCTTATATAAGCAGAGCTC
modifications: misc_feature 1..202 STATx4
luciferase activity / inducibility upon DMXAA [6]: poor inducibility

B6: ISREx4-promoter: 4 ISRE motifs separated by 20 nucleotides according to SEQ ID NO: 12 (nucleic acid)
DNA: ATCTCTGCGATGAACCTCACAGTTTCGCTTTCTATCTCTGCGATGAACCTCACAGTTTCGCTTTCTATCTCTGCGATGAACCTCACAGTTTCGCTTTCTATCTCTGCGATGAACCTCACAGTTTCGCTTTCTGTGCCTCTTATGATCTGGATCTCGAGCCATGGTCGAGGCCTGTAGGCGTGTACGGTGGGAGGCTTATATAAGCAGAGCTC
modifications: misc_feature 1..212 ISREx4
luciferase activity / inducibility upon DMXAA [5]: highest inducibility
leakage in the absence of DMXAA [5]: undetectable leakage

B7: IFN-γ: exogenously added interferon, 1,000 IU (protein, UniProt P01579 24-161, looked up)
Interferon gamma: QDPYVKEAENLKKYFNAGHSDVADNGTLFLGILKNWKEESDRKIMQSQIVSFYFKLFKNFKDDQSIQKSVETIKEDMNVKFFNSNKKKRDDFEKLTNYSVTDLNVQRKAIHELIQVMAELSPAAKTGKRKRSQMLFRG
luciferase activity [1, 7]: significantly increased luciferase activity
luciferase activity [1, 8]: induced luciferase activity dramatically
